PMC4027180
pKd: −log10 of the molar value.

Tested on: Stf76 (Sulfolobus islandicus plasmid-virus pSSVx)
Assay: ITC
Details: EMSA: 20 mM Tris-acetate pH 8.0, 50 mM K acetate, 10 mM Mg acetate, 1 mM DTT, 5% glycerol, 1 ug salmon sperm DNA, 50 C protein pre-incubation, binding 37 C …

GGAAACAGTATTAATAAAGTGTTAATCCTATTACCC (double strand) [probe A' (35 bp-site A)]
pKd: 7.40
